Results: US20190263905A1 (DINONA, published 2019)
Changes are numbered by the printed parent chain.

T1: Antigen CD66c (CEACAM6; Sino Biological, Inc.) (UniProt P40199 35-320)
T1 construct: Bought antigen coated on the ELISA plate; construct not described; also called CD66c antigen; CECACAM6
T1 sequence (looked up): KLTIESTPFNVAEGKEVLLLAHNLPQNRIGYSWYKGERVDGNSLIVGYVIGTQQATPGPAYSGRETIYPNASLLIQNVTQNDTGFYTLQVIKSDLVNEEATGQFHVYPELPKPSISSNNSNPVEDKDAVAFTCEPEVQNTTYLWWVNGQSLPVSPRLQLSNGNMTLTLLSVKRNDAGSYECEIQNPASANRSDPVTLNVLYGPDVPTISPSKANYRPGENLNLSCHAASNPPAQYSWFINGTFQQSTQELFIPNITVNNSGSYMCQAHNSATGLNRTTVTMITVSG

T2: CEACAM1 antigen (Sino Biological, Inc.) (UniProt P13688 35-428)
T2 construct: Bought antigen coated on the ELISA plate; construct not described; also called CEACAM1 (CD66a) antigen; CD66a
T2 sequence (looked up): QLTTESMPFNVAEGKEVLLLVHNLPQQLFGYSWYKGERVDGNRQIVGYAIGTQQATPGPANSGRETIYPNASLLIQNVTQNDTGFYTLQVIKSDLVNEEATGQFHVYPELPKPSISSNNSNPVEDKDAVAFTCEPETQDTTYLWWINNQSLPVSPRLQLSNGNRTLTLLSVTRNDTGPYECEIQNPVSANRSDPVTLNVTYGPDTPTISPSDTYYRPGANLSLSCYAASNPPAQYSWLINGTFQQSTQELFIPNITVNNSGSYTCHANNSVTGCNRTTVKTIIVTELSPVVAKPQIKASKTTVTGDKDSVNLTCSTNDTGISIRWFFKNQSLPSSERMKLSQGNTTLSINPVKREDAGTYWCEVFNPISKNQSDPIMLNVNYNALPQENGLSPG

T3: CD66c (CEACAM6) on CD66c-positive A549 non-small-cell lung cancer cells (UniProt P40199 35-320, limits assumed)
T3 construct: whole, on cells; also called CD66c antigen; NCA-90
T3 sequence (looked up): T1 sequence (looked up)

B1: anti-CD66c chimeric antibody 8F5 (antibody, human IgG1, V domains shown)
VH: EVQLQQSGPELVKPGASMKISCKASGYSFTDYTMNWVKQSHGKNLEWIGLINPFHGGTVSNQRFKVKATLTVDVSSNTAYMELLSLTSDDSAVYYCVRGDPVRHYYALAYWGQGTSVTVSS
VL: DIQMTQSPASLSASVGETVTITCGASENVYGTLNWYQRKQGKSPQLLIYGATNLADGMSSRFSGSGSGRQYSLKISSLHPDDVATYYCQNVLSAPYTFGGGTKLEII
notes: also called chimeric 8F5 antibody; chi 8F5
B2: recombinant humanized anti-CD66c antibody Protein ID 3058 (Vk8 + VH11) (antibody, human IgG1, V domains shown)
VH: QVQLVQSGAEVKKPGASVKISCKASGYSFTDYTMHWVKQAPGQNLEWIGLINPFGGSTSYAQKFKGRVTMTRDTSTNTAYMELSRLRSDDTAVYYCVRGDPVRHYYALAYWGQGTLVTVSS
VL: DIQMTQSPSTLSASVGDRVTITCRASENVYGTLNWYQRKPGKAPKLLIYGATNLADGMPSRFSGSGSGTEYTLTISSLQPDDFATYYCQNVLSAPYTFGGGTKLEIK
notes: also called hu 3058; #86
B3: recombinant humanized anti-CD66c antibody Protein ID 3007 (Vk7 + VH6) (antibody, human IgG1, V domains shown)
VH: QVQLVQSGAEVKKPGASMKISCKASGYSFTDYTMNWVKQAPGQNLEWIGLINPFHGGTVSNQRFKVKATLTVDVSTNTAYMELSRLRSDDTAVYYCVRGDPVRHYYALAYWGQGTLVTVSS
VL: B2 VL with R24G, M58V
notes: also called hu 3007; #43
B4: recombinant humanized anti-CD66c antibody Protein ID 2938 (Vk5 + VH7) (antibody, human IgG1, V domains shown)
VH: B3 VH with K38R, N44G
VL: B2 VL with R24G, N34A, M58V, T69R
notes: also called hu 2938
B5: recombinant humanized anti-CD66c antibody Protein ID 3043 (Vk8 + VH6) (antibody, human IgG1, V domains shown)
VH: B3 VH
VL: B2 VL
notes: also called hu 3043; #71

molecular target: T1, Antigen CD66c (CEACAM6; Sino …); experiment: ELISA, coated CEACAM6 100 ng/well, antibody 0.17 ng/ml
Experimental: (§1) Antigen CD66c (CEACAM6; Sino Biological, Inc.) and CEACAM1 antigen (Sino Biological, Inc.) were coated on a 96-well plate at 100 ng per well and then blocked. The primary antibody was diluted serially three fold from 10 ug/ml at initial concentration and was bound at 37° C. for 1 hour, and goat anti-Human Ig-HRP conjugate (Jackson ImmunoResearch) as a secondary antibody was diluted 1:10,000 and incubated at 37° C. for 30 minutes. The washing was carried out at three times between each step, and the TMB reaction was performed, stopped with 1N H₂SO₄ solution at the same amount of TMB solution (100 ul) and then OD value was measured at 450 nm.
(§2) As a result of the experiment, the binding affinities to CD66c antigen of the five kinds of recombinant humanized antibodies selected from among 96 kinds of recombinant humanized antibodies are shown in FIG. 4a, Table 12, FIG. 4b and Table 13. FIG. 4a and Table 12 show the binding capacity of the antibodies to CECACAM6 CD66c) antigen, and FIG. 4b and Table 13 are the results for the CEACAM1 (CD66a) antigen.

Compared with B1, B2 is lower in “OD 450 nm” value: 0.4 OD for the first, 0.37 OD for the second.

First: B3
Second: B4
The “OD 450 nm” value of the first is higher: 0.53 OD for the first, 0.3 OD for the second.

In the case of B5, the “OD 450 nm” value is reported as 0.41 OD.

molecular target: T1, Antigen CD66c (CEACAM6; Sino …); experiment: ELISA, coated CEACAM6 100 ng/well, antibody 0.51 ng/ml
Experimental: as §1, §2

Going from B1 to B2, the “OD 450 nm” value falls from 0.41 OD to 0.38 OD.

Going from B3 to B4, the “OD 450 nm” value falls from 0.64 OD to 0.36 OD.

B5 was tested, and the “OD 450 nm” value was 0.49 OD.

molecular target: T2, CEACAM1 antigen (Sino Biological, Inc.); experiment: ELISA, coated CEACAM1 100 ng/well, antibody 1.52 ng/ml
Experimental: as §1, §2

First: B1
Second: B2
The “OD 450 nm” value of the first is higher: 0.16 OD for the first, 0.05 OD for the second.

Going from B3 to B4, the “OD 450 nm” value falls from 0.18 OD to 0.05 OD.

With B5 the “OD 450 nm” value was 0.16 OD.

molecular target: T2, CEACAM1 antigen (Sino Biological, Inc.); experiment: ELISA, coated CEACAM1 100 ng/well, antibody 4.57 ng/ml
Experimental: as §1, §2

First: B1
Second: B2
The “OD 450 nm” value of the first is higher: 0.28 OD for the first, 0.05 OD for the second.

First: B3
Second: B4
The “OD 450 nm” value of the first is higher: 0.27 OD for the first, 0.05 OD for the second.

In the case of B5, the “OD 450 nm” value is reported as 0.27 OD.

molecular target: T1, Antigen CD66c (CEACAM6; Sino …); experiment: ELISA, coated CEACAM6 100 ng/well, antibody 13.72 ng/ml
Experimental: as §1, §2

Compared with B1, B2 is lower in “OD 450 nm” value: 1.15 OD for the first, 1.06 OD for the second.

Compared with B3, B4 is lower in “OD 450 nm” value: 1.64 OD for the first, 1.15 OD for the second.

In the case of B5, the “OD 450 nm” value is reported as 1.37 OD.

molecular target: T1, Antigen CD66c (CEACAM6; Sino …); experiment: ELISA, coated CEACAM6 100 ng/well, antibody 123.46 ng/ml
Experimental: as §1, §2

First: B1
Second: B2
The “OD 450 nm” value of the first is higher: 2.83 OD for the first, 2.22 OD for the second.

Compared with B3, B4 is lower in “OD 450 nm” value: 2.9 OD for the first, 2.56 OD for the second.

In the case of B5, the “OD 450 nm” value is reported as 2.29 OD.

molecular target: T1, Antigen CD66c (CEACAM6; Sino …); experiment: ELISA, coated CEACAM6 100 ng/well, antibody 370.37 ng/ml
Experimental: as §1, §2

Going from B1 to B2, the “OD 450 nm” value falls from 3.3 OD to 2.8 OD.

Going from B3 to B4, the “OD 450 nm” value falls from 3.16 OD to 3.08 OD.

B5 was tested, and the “OD 450 nm” value was 2.92 OD.

molecular target: T2, CEACAM1 antigen (Sino Biological, Inc.); experiment: ELISA, coated CEACAM1 100 ng/well, antibody 1111.11 ng/ml
Experimental: as §1, §2

First: B1
Second: B2
The “OD 450 nm” value of the first is higher: 1.21 OD for the first, 0.19 OD for the second.

Going from B3 to B4, the “OD 450 nm” value falls from 1.06 OD to 0.21 OD.

With B5 the “OD 450 nm” value was 1.17 OD.

molecular target: T2, CEACAM1 antigen (Sino Biological, Inc.); experiment: ELISA, coated CEACAM1 100 ng/well, antibody 3333.33 ng/ml
Experimental: as §1, §2

Going from B1 to B2, the “OD 450 nm” value falls from 1.24 OD to 0.31 OD.

Going from B3 to B4, the “OD 450 nm” value falls from 1.15 OD to 0.27 OD.

B5 was tested, and the “OD 450 nm” value was 1.22 OD.

molecular target: T2, CEACAM1 antigen (Sino Biological, Inc.); experiment: ELISA, coated CEACAM1 100 ng/well, antibody 10000.00 ng/ml
Experimental: as §1, §2

First: B1
Second: B2
The “OD 450 nm” value of the first is higher: 1.21 OD for the first, 0.42 OD for the second.

Compared with B3, B4 is lower in “OD 450 nm” value: 1.01 OD for the first, 0.32 OD for the second.

With B5 the “OD 450 nm” value was 0.91 OD.

molecular target: T3, CD66c (CEACAM6) on CD66c-positive A549 …; experiment: flow cytometry on CD66c-positive A549 cells, FITC anti-human IgG
Experimental: Each expressed 96 recombinant humanized antibody was poured and reacted in a test tube containing the same amount ([…]) of CD66c-positive A549 non-small-cell lung cancer cell line at 4° C. for 30 minutes, washed with PBS, and treated with FITC-conjugated goat anti-Human IgG (DiNona Inc, Korea) was added and incubated at 4° C. for 15 minutes. After washing with PBS, the cells were analyzed with a flow cytometer (Stratedigm, S1000EXi) and the results are shown below.
Among the 96 recombinant humanized antibody candidates, eight were firstly selected based on the degree of expression, the presence of aggregation, and the degree of cell binding (Table 9 and Table 10, FIGS. 3A to 3E).

Compared with B1, B2 is lower in “% gated” value: 73% for the first, 72% for the second.

B3 and B4 are the same in “% gated” value: 71% for the first, 71% for the second.

For B5, the “% gated” value was 69%.
